Data reported in patent US20240261333A1 (published 2024).

Columns and labels:
Assay in all cases: co-IP with mouse anti-FLAG from lysate of cells overexpressing N-FLAG B3GNT2, then mass spectrometry
[1] = molecular target: T1, PABPC1 (human, UniProt P11940 1-636)
T1 construct: Identified by mass spectrometry in the co-IP; also called NP_002559.2
Description: (§1) Cells were plated in 10-cm cell culture dishes and grown to 60-80% confluency. For each condition, two biological replicates were harvested for co-IP. Cells were washed with PBS and 4 mL of lysis buffer (20 mM HEPES, 1% Triton X-100, 150 mM NaCl, 1 mM EDTA, and 10% glycerol) containing protease inhibitor cocktail was added. Cells were scraped and lysate was incubated at 4° C. under rotary agitation for 1 h. Lysate was centrifuged at 14,000×g for 10 min at 4° C. Supernatant was transferred to a new tube and an aliquot was taken as the input. […] For Western blots, 10 μg/mL Chicken Anti-FLAG (Aves labs ET-DY100) and IgY control (R&D Systems AB-101-C) antibodies were biotinylated (Thermo Fisher Scientific 90407) and added to the respective conditions. Lysates with antibodies were incubated at 4° C. under rotary agitation overnight. For each mL of lysate, 50 μL of Pierce Protein A/G Magnetic Beads (Mass spectrometry; Thermo Fisher Scientific 88803) or Pierce Streptavidin Magnetic Beads (Western blot; Thermo Fisher Scientific 88817) was washed twice with lysis buffer. Lysates with antibodies were added to the beads and incubated at 4° C. under rotary agitation for 4 h. Beads were washed with lysis buffer 3 times and resuspended in lysis buffer for storage.
(§2) Magnetic beads were resuspended in 100 mM Tris pH 7.8, reduced, alkylated and digested with trypsin at 37° ° C. overnight. This solution was subjected to solid phase extraction to concentrate the peptides and remove unwanted reagents followed by injection onto a Shimadzu HPLC with fraction collector. Eight fractions were collected and after concentration were injected on a Waters NanoAcquity HPLC equipped with a self-packed Aeris 3 μm C18 analytical column 0.075 mm by 20 cm, (Phenomenex). Peptides were eluted using standard reverse-phase gradients. The effluent from the column was analyzed using a Thermo Orbitrap Elite mass spectrometer (nanospray configuration) operated in a data dependent manner for 54 minutes. The resulting fragmentation spectra were correlated against the known database using Proteome Discover 1.4 (Thermo Fisher Scientific).

[2] = molecular target: T2, MAGED2 (human, UniProt Q9UNF1 2-606)
T2 construct: Identified by mass spectrometry in the co-IP; also called NP_803182.1
T2 sequence (looked up): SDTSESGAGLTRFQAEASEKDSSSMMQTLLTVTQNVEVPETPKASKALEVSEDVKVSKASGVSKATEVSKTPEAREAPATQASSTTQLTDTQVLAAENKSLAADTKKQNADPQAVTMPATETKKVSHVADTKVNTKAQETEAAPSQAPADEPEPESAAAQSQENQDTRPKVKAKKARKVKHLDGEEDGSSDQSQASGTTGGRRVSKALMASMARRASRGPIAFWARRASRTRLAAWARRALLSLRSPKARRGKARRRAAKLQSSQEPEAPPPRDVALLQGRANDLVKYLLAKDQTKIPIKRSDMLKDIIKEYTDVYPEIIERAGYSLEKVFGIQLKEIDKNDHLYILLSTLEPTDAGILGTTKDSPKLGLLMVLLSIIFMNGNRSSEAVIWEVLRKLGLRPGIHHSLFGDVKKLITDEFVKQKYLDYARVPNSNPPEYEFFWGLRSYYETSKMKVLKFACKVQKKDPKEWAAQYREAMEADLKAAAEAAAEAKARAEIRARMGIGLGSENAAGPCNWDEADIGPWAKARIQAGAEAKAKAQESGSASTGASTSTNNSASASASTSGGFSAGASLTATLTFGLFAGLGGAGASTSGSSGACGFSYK
Description: as §1, §2

[3] = molecular target: T3, EIF3I (human, UniProt Q13347 1-325)
T3 construct: Identified by mass spectrometry in the co-IP; also called NP_003748.1
T3 sequence (Q13347 whole entry): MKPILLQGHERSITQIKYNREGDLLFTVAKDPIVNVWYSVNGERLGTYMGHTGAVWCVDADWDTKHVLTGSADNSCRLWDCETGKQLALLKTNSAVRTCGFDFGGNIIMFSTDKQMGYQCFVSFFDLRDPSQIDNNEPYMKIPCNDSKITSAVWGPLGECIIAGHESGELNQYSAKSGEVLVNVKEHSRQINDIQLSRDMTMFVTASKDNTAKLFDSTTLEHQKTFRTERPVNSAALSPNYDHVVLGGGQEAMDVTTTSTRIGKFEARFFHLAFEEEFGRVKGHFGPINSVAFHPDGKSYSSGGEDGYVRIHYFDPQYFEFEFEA
Description: as §1, §2

[4] = molecular target: T4, ANXA2 (human, UniProt P07355-2 1-357, limits assumed)
T4 construct: Identified by mass spectrometry in the co-IP; also called NP_001002858.1 (+1)
T4 sequence (P07355 other isoform, or with tags, fused parts or gaps limits assumed): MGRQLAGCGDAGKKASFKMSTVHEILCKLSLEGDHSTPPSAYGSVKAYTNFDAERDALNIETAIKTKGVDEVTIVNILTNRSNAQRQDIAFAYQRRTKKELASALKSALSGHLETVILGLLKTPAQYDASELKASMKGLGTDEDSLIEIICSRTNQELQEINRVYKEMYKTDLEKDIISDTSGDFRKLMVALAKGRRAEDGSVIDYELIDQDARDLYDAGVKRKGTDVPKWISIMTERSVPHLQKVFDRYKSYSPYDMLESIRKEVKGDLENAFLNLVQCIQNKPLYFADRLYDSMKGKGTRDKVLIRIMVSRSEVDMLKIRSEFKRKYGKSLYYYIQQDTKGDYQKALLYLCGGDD
Description: as §1, §2

[5] = molecular target: T5, SRP14 (human, UniProt P37108 2-136)
T5 construct: Identified by mass spectrometry in the co-IP; also called NP_003125.3
T5 sequence (looked up): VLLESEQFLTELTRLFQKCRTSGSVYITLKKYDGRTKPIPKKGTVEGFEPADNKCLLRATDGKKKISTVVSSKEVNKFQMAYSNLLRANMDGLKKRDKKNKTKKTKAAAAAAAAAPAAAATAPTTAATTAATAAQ
Description: as §1, §2

[6] = molecular target: T6, CAPRIN1 (human, UniProt Q14444 2-709)
T6 construct: Identified by mass spectrometry in the co-IP; also called NP_005889.3 (+1)
T6 sequence (looked up): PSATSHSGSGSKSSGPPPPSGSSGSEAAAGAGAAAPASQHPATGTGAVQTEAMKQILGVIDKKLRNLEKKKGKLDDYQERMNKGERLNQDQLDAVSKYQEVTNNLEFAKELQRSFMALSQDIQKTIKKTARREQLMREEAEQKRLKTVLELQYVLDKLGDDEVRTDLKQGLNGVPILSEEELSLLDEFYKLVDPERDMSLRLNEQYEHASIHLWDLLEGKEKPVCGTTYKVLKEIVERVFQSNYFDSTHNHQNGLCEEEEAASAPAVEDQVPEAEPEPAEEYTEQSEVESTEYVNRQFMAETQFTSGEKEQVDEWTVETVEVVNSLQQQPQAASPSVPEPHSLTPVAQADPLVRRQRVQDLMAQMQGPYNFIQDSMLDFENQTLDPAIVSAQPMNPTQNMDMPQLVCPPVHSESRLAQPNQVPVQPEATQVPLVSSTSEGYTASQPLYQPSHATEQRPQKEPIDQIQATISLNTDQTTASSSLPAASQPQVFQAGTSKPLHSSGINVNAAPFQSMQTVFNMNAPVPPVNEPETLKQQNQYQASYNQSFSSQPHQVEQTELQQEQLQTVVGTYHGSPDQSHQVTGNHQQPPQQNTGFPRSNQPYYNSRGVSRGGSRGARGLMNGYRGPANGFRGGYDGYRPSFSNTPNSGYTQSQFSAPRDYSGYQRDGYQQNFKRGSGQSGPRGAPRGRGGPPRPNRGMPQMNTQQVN
Description: as §1, §2

T1 sequence (P11940 whole entry): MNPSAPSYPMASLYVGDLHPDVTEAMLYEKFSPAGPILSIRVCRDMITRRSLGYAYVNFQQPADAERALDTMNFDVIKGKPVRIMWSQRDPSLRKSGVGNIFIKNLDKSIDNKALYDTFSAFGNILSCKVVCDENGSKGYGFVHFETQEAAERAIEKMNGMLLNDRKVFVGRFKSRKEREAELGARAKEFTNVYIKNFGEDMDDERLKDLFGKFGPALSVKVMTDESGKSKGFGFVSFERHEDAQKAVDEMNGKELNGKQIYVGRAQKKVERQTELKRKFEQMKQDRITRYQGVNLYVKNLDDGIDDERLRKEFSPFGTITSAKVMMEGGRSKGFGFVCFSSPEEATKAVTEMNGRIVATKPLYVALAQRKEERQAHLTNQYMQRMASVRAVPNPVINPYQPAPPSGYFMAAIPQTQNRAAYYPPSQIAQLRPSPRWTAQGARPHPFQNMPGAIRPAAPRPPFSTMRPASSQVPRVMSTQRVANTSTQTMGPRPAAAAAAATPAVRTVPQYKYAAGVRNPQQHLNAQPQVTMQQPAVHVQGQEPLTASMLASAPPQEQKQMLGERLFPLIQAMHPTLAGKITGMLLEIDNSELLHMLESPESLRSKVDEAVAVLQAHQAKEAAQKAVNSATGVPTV

B1: N-terminal FLAG tagged B3GNT2 (enzyme, human, UniProt Q9NY97 1-397, looked up)
chain: MSVGRRRIKLLGILMMANVFIYFIMEVSKSSSQEKNGKGEVIIPKEKFWKISTPPEAYWNREQEKLNRQYNPILSMLTNQTGEAGRLSNISHLNYCEPDLRVTSVVTGFNNLPDRFKDFLLYLRCRNYSLLIDQPDKCAKKPFLLLAIKSLTPHFARRQAIRESWGQESNAGNQTVVRVFLLGQTPPEDNHPDLSDMLKFESEKHQDILMWNYRDTFFNLSLKEVLFLRWVSTSCPDTEFVFKGDDDVFVNTHHILNYLNSLSKTKAKDLFIGDVIHNAGPHRDKKLKYYIPEVVYSGLYPPYAGGGGFLYSGHLALRLYHITDQVHLYPIDDVYTGMCLQKLGLVPEKHKGFRTFDIEEKNKNNICSYVDLMLVHSRKPQEMIDIWSQLQSAHLKC
notes: FLAG-tagged ORF overexpressed in A375 cells; bait of the co-IP with mouse anti-FLAG; also called N-FLAG B3GNT2; N-term FLAG; not shown: N-terminal FLAG tag
For B1, the “co-IP mass spectrometry count (N-term FLAG)” value (from here on “co-IP mass spectrometry count”) [1] was 31, the “co-IP mass spectrometry count” value [2] was 0 and the “co-IP mass spectrometry count” value [3] was 0. The “co-IP mass spectrometry count” value [4] was 17, the “co-IP mass spectrometry count” value [5] was 0 and the “co-IP mass spectrometry count” value [6] was 7.
